Assay results: paper PMC4141501
Like-named read-outs stand apart in the source and are kept apart here.

Key:
[1] = molecular target: human EWI2 wild-type with palmitate-free cytoplasmic cysteines (after hydroxylamine or 2BP) (human) (UniProt Q969P0); assay: cross-linking
[2] = molecular target: human EWI2 wild-type with palmitate-free cytoplasmic cysteines (after hydroxylamine or 2BP) (human) (UniProt Q969P0); assay: cross-linking; remark: listed apart in the source

Question: Which results are given for “human EWI2 wild-type with palmitate-free cytoplasmic cysteines (after hydroxylamine or 2BP) (from UniProt Q969P0 28-613) (natural protein)”?
Answer: percent of EWI2 molecules dimerized [1]: 11%; stoichiometry N [1]: 2; percent of EWI2 molecules dimerized [2]: 78%; stoichiometry N [2]: 2
